This note sets out measurements from PMC5750235.

For test [1], the target named is IgE on the surface of patients' basophils (human (endogenous in patients' blood)). As to the kind of experiment: flow cytometry on cells; EDTA blood of allergic donors preincubated with 026 sdab (0 to 45 µmol/l) for up to 60 min in IL-3-containing stimulation buffer; remaining surface IgE on basophils stained with anti-IgE-FITC. A general note: Flow cytometry measures light scatter and fluorescence of single cells or particles in a stream.

In test [2] the target is IgE Fc Cε2–4 (human). Briefly: SPR; Biacore T200; IgE Fc immobilized (110 RU) on CM5 by NHS/EDC; 026 sdab injected 0.003-50 µg/ml, 25 µl/min; 25 °C; 10 mM monosodium phosphate, 40 mM disodium phosphate, 100 mM NaCl, pH 7.4, 0.01% Tween-20; 1:1 binding model. On the technique in general: Surface plasmon resonance follows binding to a sensor surface in real time, without labels.

Chain of IgE on the surface of patients' basophils (human (endogenous in patients' blood)) (P01854 whole entry): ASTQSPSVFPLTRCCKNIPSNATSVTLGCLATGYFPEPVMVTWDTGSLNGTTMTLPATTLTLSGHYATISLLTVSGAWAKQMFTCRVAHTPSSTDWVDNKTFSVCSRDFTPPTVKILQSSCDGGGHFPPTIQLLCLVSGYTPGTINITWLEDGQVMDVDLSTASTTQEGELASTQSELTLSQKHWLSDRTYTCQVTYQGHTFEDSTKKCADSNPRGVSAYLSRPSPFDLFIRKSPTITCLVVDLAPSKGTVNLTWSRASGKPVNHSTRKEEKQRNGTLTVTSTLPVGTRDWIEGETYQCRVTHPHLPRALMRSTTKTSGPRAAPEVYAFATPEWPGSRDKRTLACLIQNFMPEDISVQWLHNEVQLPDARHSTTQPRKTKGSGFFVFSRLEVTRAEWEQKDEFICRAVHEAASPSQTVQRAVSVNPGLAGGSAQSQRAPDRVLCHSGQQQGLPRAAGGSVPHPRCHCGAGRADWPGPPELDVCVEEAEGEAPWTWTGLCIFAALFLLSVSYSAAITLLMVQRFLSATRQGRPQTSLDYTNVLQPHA

B1: 026 sdab (VHH)
VHH: EVQLLESGGGLVQPGGSLRLSCAASGFTFGNYDMAWVRQAPGKRPEWVSSIDTGGDITHYADSVKGRFTISRDNAKNTLYLQMNSLRPEDTAVYWCATDEEYALGPNEFDYYGQGTLVTVSS
In test [1], B1 had a surface IgE left on basophils after 15 min with 026 sdab of 30% and a surface IgE left on basophils after prolonged incubation with 026 sdab of 20%. In test [2], this molecule displayed a Kd of 1.4 nM.

One may read the Kd as the constant that tells how readily two partners part at equilibrium. The low end stands for higher affinity, the high end for lower affinity.
